Tested on: MS2 coat protein
Assay: apparent KD of MS2 coat protein; higher = weaker reporter binding
Settings: Eterna round: R107; input ligand: theophylline 20 uM
In short: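 Titration buffer: 100 mM Tris-HCl pH 7.5, 80 mM KCl, 4 mM MgCl2, without or with constant ligand. Designed RNA switches transcribed on-chip from Illumina sequencing clusters received SNAP-549-labelled MS2 coat protein in twofold steps from 0.7 or 1.5 nM to 3 µM. Apparent KD is the median per design of fits to normalised cluster binding curves.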

Sequence	apparent KD of MS2 coat protein
GAUAUGUAUCGAAGGAGCGGCCCUUGAUCCUCAUGAGACAUGAGGAUCACCCAUGUCUCGGGCCAGGUAGGUCGCGAUAUAUAUC [Astros-omei-mod3]	24.3 nM
AUCGCACCUGGUGAUACCAGCAAUUGCUCGUGACAUGAGGAUCACCCAUGUGGCCAGUGAUGCCCUUGGCAGCAUGGUCGGUGCA [Same State - Theophylline B (Freestyle 25)]	335 nM
AAUGUAUGGCACAUGAGGAUCACCCAUGUGCGAGGACCGGUACGGCCGCCACUCGGUCCUGGAUUCUUAUUACUAUACAUUAAUG [XTryp A #16]	18.9 nM
GAAGACAUGAGGAUCACCCAUGUUACACACCGAGGACCGGUACGGCCGCCACUCGUAGGCCCUCGGCUCACCUGAGAUCCGCAUC [theeternabot_sameState_MS2_Trp_A_11]	31.8 nM
GGUGAUCCGUAUCACCGGAUCAUCGGUGAUACCAGCAUCGAAAGAUGCCCUUGGCAGCACCAACAUGAGGAUCACCCAUGUAAUA [(M)'-(T)'-(M)''-(T1)-(T2)-(M1)-(M2)_Design6]	67 nM
GGUGGGACUUGUGAUACCAGCCUAAUUCGAAUCGAAUUGCACAUGAGGAUCACCCAUGUCGGCCCUUGGCAGCAUGAGUAUUUAU [Aagexe]	129 nM
CGCCACUCGAGUGAUCCUCACGAGUGGCUACGAGGACCGGUACGGCCGCCACUCGAAUUAACAUGAGGAUCACCCAUGUAAUCCA [Brourdmod09]	217 nM
CUCUGAGUCCGCAAGGACUCAGAGGCGGAUACCAGCGAGGUCCAUCGCCCUUGGCAGCCGAACAUGAGGAUCACCCAUGUCGGUA [#1 Same State - Theophylline A Attempt #27 (HarryS)]	14.5 nM
CUAUAAUAUAGAAGGAGCGUCGAAAAUGGGUAAACAUGAGGAUCACCCAUGUAAAGGGAACGACAGGUAGGUCGCUAUAUUAUAG [AstromonsSSArgB#12]	237 nM
UAUCUACAUGAAUAGGUUAUUCGAUUAUUUCGAGGACCGGUACGGCCGCCACUCGUUAACAUAUACAUGAGGAUCACCCAUGUUA [JR_Nu_SSTryptoA_Sub024]	22.7 nM
AUGUCGUUGAAUAUAGCGGCUUGGUGUGAUACCAGAAUGAUCUAAUUCCCUUGGCAGCAUUACAUGAGGAUCACCCAUGUUUAGG [SSTheo A #19]	29.6 nM
UGUAUGGACUGAAGGAGCGGGUUGAUAACCUGAGGAUCAUCCAGGUAAAAGGCGAAAGCCACCCAGGUAGGUCGCAGUCCAUACU	344 nM
UCGUGUGUUUCGGAUACCAGUGAAAUCGAUACAUGAGGAUCACCCAUGUGAGAGGAUGUACACCCUUGGCAGCUGGCUGUUGCGG [zezmullin]	36.2 nM
UUGUUAUACGGAAGGAGCGUGUAAGAUUAAGAACAUGAGGAUCACCCAUGUUUUAAGGGAACACAGGUAGGUCGCCGUAUAGUGG [11.P]	13.2 nM

Same assay, conditions: Eterna round: R107; input ligand: theophylline 2 mM

Sequence	apparent KD of MS2 coat protein
GCAUCCUAGUCGGCCGCCACUGACAUGAGGAUCACCCAUGUACAUGAGGAUCACCCAUGUUGUAGCAGGACCGGGACUAGGAUGC [SS Tryp B #17]	295 nM
AUAACAUGAGGAUCACCCAUGUAAGCUGAAGGAGCGGACGAAAGUCCAGGUAGGUCGCAGCGCUCCUUCACCUCAUGAGAAGGAG [(M1)-(M2)-(Arg1)-(Arg2)-(A)'-(M)'-(A)''_Design2]	25.3 nM
CGGUAACCACAUGAGGAUCACCCAUGUGAAGGAGCGGCGAAUAAGCCAGGUAGGUCGCGCAUGAAUAAAUCAUGUAGGUGCCGAA [XArg-A 15 NuPack]	156 nM
UACAUGAGGAUCACCCAUGUGUAGAGGGAUACCAGUGACAGUAAGCACCCUUGGCAGCCCGUGAACAAAGGGUGGGCAAAAUAGU [#16 Exclusion-TheophyllineA]	47.4 nM
UCGCUCGCCGUAAGGCGAGCGAGUUGCGAUACCAGCCCGGAAACGGGCCCUUGGCAGCGCACAUGAGGAUCACCCAUGUCAUGUU [#1 Exclusion - Theophylline A Attempt #5 (HarryS)]	24.3 nM
GGAUAGGACACGGCCGCCACUGCCUAGGAUACUAGCAACAUUUGGGUACAAGAGGAUCACCCUUGUAGGACCGGGUGUCCUAUCG	29.3 nM
UGUAGUACCAGACAUGAGGAUCACCCAUGUCGAGGACCGGUACGGCCGCCACUCGGCAGUUUGCGUCCUCAGGUACUCCGGGUAA [Dianreti]	14.9 nM
GAUAUGUAUCGAAGGAGCGGCCCUUGAUCCUCAUGAGACAUGAGGAUCACCCAUGUCUCGGGCCAGGUAGGUCGCGAUAUAUAUC [Astros-omei-mod3]	24.7 nM
AUCGCACCUGGUGAUACCAGCAAUUGCUCGUGACAUGAGGAUCACCCAUGUGGCCAGUGAUGCCCUUGGCAGCAUGGUCGGUGCA [Same State - Theophylline B (Freestyle 25)]	64.5 nM
AAUGUAUGGCACAUGAGGAUCACCCAUGUGCGAGGACCGGUACGGCCGCCACUCGGUCCUGGAUUCUUAUUACUAUACAUUAAUG [XTryp A #16]	15.4 nM
GAAGACAUGAGGAUCACCCAUGUUACACACCGAGGACCGGUACGGCCGCCACUCGUAGGCCCUCGGCUCACCUGAGAUCCGCAUC [theeternabot_sameState_MS2_Trp_A_11]	31.9 nM
CGCCACUCGAGUGAUCCUCACGAGUGGCUACGAGGACCGGUACGGCCGCCACUCGAAUUAACAUGAGGAUCACCCAUGUAAUCCA [Brourdmod09]	400 nM
CUAUAAUAUAGAAGGAGCGUCGAAAAUGGGUAAACAUGAGGAUCACCCAUGUAAAGGGAACGACAGGUAGGUCGCUAUAUUAUAG [AstromonsSSArgB#12]	305 nM
UAUCUACAUGAAUAGGUUAUUCGAUUAUUUCGAGGACCGGUACGGCCGCCACUCGUUAACAUAUACAUGAGGAUCACCCAUGUUA [JR_Nu_SSTryptoA_Sub024]	21.5 nM
UGUAUGGACUGAAGGAGCGGGUUGAUAACCUGAGGAUCAUCCAGGUAAAAGGCGAAAGCCACCCAGGUAGGUCGCAGUCCAUACU	433 nM
UUGUUAUACGGAAGGAGCGUGUAAGAUUAAGAACAUGAGGAUCACCCAUGUUUUAAGGGAACACAGGUAGGUCGCCGUAUAGUGG [11.P]	11.3 nM

Same assay, conditions: Eterna round: R107; input ligand: tryptophan 2.4 mM

Sequence	apparent KD of MS2 coat protein
GCAUCCUAGUCGGCCGCCACUGACAUGAGGAUCACCCAUGUACAUGAGGAUCACCCAUGUUGUAGCAGGACCGGGACUAGGAUGC [SS Tryp B #17]	75.6 nM
AUAACAUGAGGAUCACCCAUGUAAGCUGAAGGAGCGGACGAAAGUCCAGGUAGGUCGCAGCGCUCCUUCACCUCAUGAGAAGGAG [(M1)-(M2)-(Arg1)-(Arg2)-(A)'-(M)'-(A)''_Design2]	22.4 nM
CGGUAACCACAUGAGGAUCACCCAUGUGAAGGAGCGGCGAAUAAGCCAGGUAGGUCGCGCAUGAAUAAAUCAUGUAGGUGCCGAA [XArg-A 15 NuPack]	99.8 nM
GAGCUGAUGUAGGCCGGAUAUCCGGGAGAUACCAGUACAGAAAUGUACCCUUGGCAGCUCUUUCCUACAUGAGGAUCACCCAUGU [Ex Theophylline A 28]	17.8 nM
AAUAACAUGAGGAUCACCCAUGUAAAAGAUACCAGAUGCAUGAUGAUCCCUUGGCAGCUUAAACGCGAUUGAUUACAAUCGCGAA [Mat - Same State Theophlline A - Mod of Eli - D10]	21.2 nM
UACAUGAGGAUCACCCAUGUGUAGAGGGAUACCAGUGACAGUAAGCACCCUUGGCAGCCCGUGAACAAAGGGUGGGCAAAAUAGU [#16 Exclusion-TheophyllineA]	33.9 nM
CGAUCUUUCGAAAGAAGGAUCUUGUCUGAUACCAGAGACGAAAGUCUCCCUUGGCAGCAGUGCCAACAUGAGGAUCACCCAUGUU [Theophylline A 11]	15.5 nM
GUUAUAUUAAUUGAUACCAGCGAGAAAACAUGAGGAUCACCCAUGUUCGCCCAUGUUAAGCGCCCUUGGCAGCAAUUUUAUUAGC [AstrosExyTheB#2]	37.5 nM
ACAUGAGGAUCACCCAUGUGCAGAACGGAUACCAGCGUCCUGGUACGCCCUUGGCAGCCGGACAUGAGGAUCACCCAUGUGUGGA [Exclusion Theophylline A GF29]	105 nM
UCGCUCGCCGUAAGGCGAGCGAGUUGCGAUACCAGCCCGGAAACGGGCCCUUGGCAGCGCACAUGAGGAUCACCCAUGUCAUGUU [#1 Exclusion - Theophylline A Attempt #5 (HarryS)]	19.7 nM
GGAUAGGACACGGCCGCCACUGCCUAGGAUACUAGCAACAUUUGGGUACAAGAGGAUCACCCUUGUAGGACCGGGUGUCCUAUCG	26 nM
AGUACCAAUGAGGAUACCAGAGUGCGACGCCGAAACCUUGACAUGAGGAUCACCCAUGUACUCCCUUGGCAGCCUGUACUUGCCA [theeternabot_exclusion_MS2_Theo_B_17]	34.9 nM
AAGAAGUUUUGAUUUUUAUGAAGUAGUGAUACCAGUCAAGAAAGAGACCCUUGGCAGCGCAACAUGAGGAUCACCCAUGUAAGAA [A random design]	24.2 nM
ACGACGCAUACAGAUACCAGUAGCCGAGAAACAUGAGGAUCACCCAUGUCGAGCGACAACUGCCCUUGGCAGCUGUAUGCGUCAG [SSTheo B #12]	8.02 nM
GAUAUGUAUCGAAGGAGCGGCCCUUGAUCCUCAUGAGACAUGAGGAUCACCCAUGUCUCGGGCCAGGUAGGUCGCGAUAUAUAUC [Astros-omei-mod3]	21.8 nM
AUCGCACCUGGUGAUACCAGCAAUUGCUCGUGACAUGAGGAUCACCCAUGUGGCCAGUGAUGCCCUUGGCAGCAUGGUCGGUGCA [Same State - Theophylline B (Freestyle 25)]	288 nM
GGUGAUCCGUAUCACCGGAUCAUCGGUGAUACCAGCAUCGAAAGAUGCCCUUGGCAGCACCAACAUGAGGAUCACCCAUGUAAUA [(M)'-(T)'-(M)''-(T1)-(T2)-(M1)-(M2)_Design6]	98.4 nM
GGUGGGACUUGUGAUACCAGCCUAAUUCGAAUCGAAUUGCACAUGAGGAUCACCCAUGUCGGCCCUUGGCAGCAUGAGUAUUUAU [Aagexe]	255 nM
CUCUGAGUCCGCAAGGACUCAGAGGCGGAUACCAGCGAGGUCCAUCGCCCUUGGCAGCCGAACAUGAGGAUCACCCAUGUCGGUA [#1 Same State - Theophylline A Attempt #27 (HarryS)]	10.9 nM
CUAUAAUAUAGAAGGAGCGUCGAAAAUGGGUAAACAUGAGGAUCACCCAUGUAAAGGGAACGACAGGUAGGUCGCUAUAUUAUAG [AstromonsSSArgB#12]	223 nM
AUGUCGUUGAAUAUAGCGGCUUGGUGUGAUACCAGAAUGAUCUAAUUCCCUUGGCAGCAUUACAUGAGGAUCACCCAUGUUUAGG [SSTheo A #19]	28.8 nM
UGUAUGGACUGAAGGAGCGGGUUGAUAACCUGAGGAUCAUCCAGGUAAAAGGCGAAAGCCACCCAGGUAGGUCGCAGUCCAUACU	322 nM
UCGUGUGUUUCGGAUACCAGUGAAAUCGAUACAUGAGGAUCACCCAUGUGAGAGGAUGUACACCCUUGGCAGCUGGCUGUUGCGG [zezmullin]	34.2 nM
UUGUUAUACGGAAGGAGCGUGUAAGAUUAAGAACAUGAGGAUCACCCAUGUUUUAAGGGAACACAGGUAGGUCGCCGUAUAGUGG [11.P]	14.7 nM

Reference: the supplement of paper PMC9170038
